# Measurements taken from patent US20130097717A1, “COMPOSITIONS AND METHODS FOR RE-PROGRAMMING CELLS WITHOUT GENETIC MODIFICATION FOR TREATMENT OF CARDIOVASCULAR DISEASES” (VIVOSCRIPT, INC., priority 2010, published 2013).
# B1: His6-Foxp3-11R: His6-tagged Foxp3 fused to 11R, SEQ ID NO: 33 (protein)
# chain: MGSSHHHHHHSSGLVPRGSHMPNPRPGKPSAPSLALGPSPGASPSWRAAPKASDLLGARGPGGTFQGRDLRGGAHASSSSLNPMPPSQLQLPTLPLVMVAPSGARLGPLPHLQALLQDRPHFMHQLSTVDAHARTPVLQVHPLESPAMISLTPPTTATGVFSLKARPGLPPGINVASLEWVSREPALLCTFPNPSAPRKDSTLSAVPQSSYPLLANGVCKWPGCEKVFEEPEDFLKHCQADHLLDEKGRAQCLLQREMVQSLEQQLVLEKEKLSAMQAHLAGKMALTKASSVASSDKGSCCIVAAGSQGPVVPAWSGPREAPDSLFAVRRHLWGSHGNSTFPEFLHNMDYFKFHNMRPPFTYATLIRWAILEAPEKQRTLNEIYHWFTRMFAFFRNHPATWKNAIRHNLSLHKCFVRVESEKGAVWTVDELEFRKKRSQRPSRCSNPTPGPESGGGGSPGRRRRRRRRRRR
# modifications: transducible material
# Key:
# PBMC/mono- (T cells) = experiment: Reprogramming of T cells to Treg cells, flow cytometry of CD4 and CD25 in PBMC lacking CD14 monocytes; type: cell-based, human; conditions: 10, 20 or 50 μg/ml
# Method: 100 ml of healthy human blood was collected from a donor and the peripheral blood mononuclear cells (PBMCs) were isolated by density-gradient centrifugation using Histopaque-1077 (Sigma-Aldrich, St Louis, Mo.). CD14+ monocytes were removed by magnetic bead selection (Miltenyi Biotec, Auburn, Calif.). Briefly, […] PBMCs were incubated with 200 μL anti-CD14 microbeads (Miltenyi Biotec) in ice for 30 minutes. The cells were washed with cold 1×PBS with 2% FCS and centrifuged at 300 g for 10 minutes and then resuspended in 1×PBS with 2% FCS. The cell suspension was applied to the magnetic column and unbinding cells were passed through by washing 3 times with 1×PBS with 2% FCS. The PBMC/mono- were harvested by centrifuged at 300 g for 10 minutes.
# The PBMC/mono- were cultured in 6-well plates (Becton Dickinson, Gaithersburg, Md.) supplemented with 10% FBS, nonessential amino acids, 2 mM glutamine, 1 mM sodium pyruvate, 25 mM HEPES, 200 units/ml penicillin, and streptomycin at 37° C. and 5% CO2. After 1 hour of culture, His6-Foxp3-11R (10 μg/ml, 20 μg/ml, or 50 μg/ml) was added to the cells. BSA (100 μg/ml) was added to another well as control. Same concentration of His6-Foxp3-11R or BSA was added after cultured for two days. After 5 days of culture, the cells were washed with PBS twice. The cells were re-suspended in 100 μL diluted and added rabbit anti-human CD25 for 90 minutes. […]
# PBMC (T cells) = experiment: Reprogramming of T cells to Treg cells, flow cytometry of CD4 and CD25 in PBMC; type: cell-based, human; conditions: 10, 50 or 100 μg/ml
# Method: 100 ml of healthy human blood was collected from a donor and the peripheral blood mononuclear cells (PBMCs) were isolated by density-gradient centrifugation using Histopaque-1077 (Sigma-Aldrich, St Louis, Mo.). The PBMC/mono^− were cultured in […] plates (Becton Dickinson, Gaithersburg, Md.) supplemented with 10% FBS, nonessential amino acids, 2 mM glutamine, 1 mM sodium pyruvate, 25 mM HEPES, 200 units/ml penicillin, and streptomycin at 37° C. and 5% CO2. After 1 hour of culture, Foxp3 (10 μg/ml, 50 μg/ml, 100 μg/ml) were added to the cells. BSA (100 μg/ml) was added to another well as control. Same concentration of the Foxp3 or BSA was added after cultured two days. Following 5 days of culture, the cells were washed with PBS twice. The cells were re-suspended in 100 μL diluted and added rabbit anti-human CD25 for 90 minutes. The cells were washed three time with cold 1×PBS supplied 2% FBS and then the conjugated-PE mouse anti-human CD4 as well as conjugated-FITC goat anti-rabbit IgG were added to the cells for 60 minutes in ice. Conjugated-PE mouse IgG and rabbit IgG were incubated with another group cells as Isotype control. The cells were washed with PBS for flow cytometric analysis using a Beckman Coulter FC500 cytometer with Cytomics CXP software (Beckman Coulter, Fullerton, Calif.) (FIGS. 14-17).
# [1] = added again after two days, 5 days of culture
molecule,measurement,setting,value
B1,dose dependence of the increase of CD4+CD25+T cells,PBMC/mono- (T cells),protein-dose dependent
same,CD4+CD25+T cells (Treg cells),PBMC/mono- (T cells); [1],dramatically increased
same,dose dependence of the increase of CD4+CD25+T cells,PBMC (T cells),protein-dose dependent
same,CD4+CD25+T cells (Treg cells),PBMC (T cells); [1],dramatically increased
